Measurements as given in FireProtDB (doi:10.1021/bi0115028).
Where “and” joins values, the source holds several entries; their conditions need not be identical. Identical values can stand only once.

Conditions: Bos taurus, 25 °C, NaCl 2 M, whole UniProt chain shown
[1] = pH 2.3, GdnHCl, Absorbance, H3PO4, NaOH
[2] = pH 2.3, GdnHCl, CD, H3PO4, NaOH
[3] = pH 6.2, GdnHCl, Absorbance, KH2PO4-Na2HPO4
[4] = pH 6.2, GdnHCl, CD, KH2PO4-Na2HPO4
[5] = pH 6.2, Urea, Absorbance, KH2PO4-Na2HPO4
[6] = pH 6.2, Urea, CD, KH2PO4-Na2HPO4
[7] = pH 8.3, GdnHCl, Absorbance, KHPO4-Na2HPO4/NaOH
[8] = pH 8.3, GdnHCl, CD, KHPO4-Na2HPO4/NaOH
[9] = pH 8.3, Urea, Absorbance, KHPO4-Na2HPO4/NaOH
[10] = pH 8.3, Urea, CD, KHPO4-Na2HPO4/NaOH

B1: Beta-lactoglobulin wild type, P02754 (protein)
chain: MKCLLLALALTCGAQALIVTQTMKGLDIQKVAGTWYSLAMAASDISLLDAQSAPLRVYVEELKPTPEGDLEILLQKWENGECAQKKIIAEKTKIPAVFKIDALNENKVLVLDTDYKKYLLFCMENSAEPEQSLACQCLVRTPEVDDEALEKFDKALKALPMHIRLSFNPTQLEEQCHI
[1]
  denaturant m value: 3.9 kcal/mol/M
  denaturant midpoint (higher = more stable): 3.4 M
  unfolding free energy: 13.4 kcal/mol
[2]
  denaturant m value: 3.8 kcal/mol/M and 4.4 kcal/mol/M
  denaturant midpoint (higher = more stable): 3.5 M
  unfolding free energy: 13 kcal/mol and 15.2 kcal/mol
[3]
  denaturant m value: 2.5 kcal/mol/M
  denaturant midpoint (higher = more stable): 2.7 M
  unfolding free energy: 8.4 kcal/mol
[4]
  denaturant m value: 3.3 kcal/mol/M and 2.5 kcal/mol/M
  denaturant midpoint (higher = more stable): 2.9 M and 2.7 M
  unfolding free energy: 9.5 kcal/mol and 6.9 kcal/mol
[5]
  denaturant m value: 0.9 kcal/mol/M
  denaturant midpoint (higher = more stable): 4.1 M
  unfolding free energy: 3.7 kcal/mol
[6]
  denaturant m value: 0.7 kcal/mol/M and 0.6 kcal/mol/M
  denaturant midpoint (higher = more stable): 3.5 M and 2.1 M
  unfolding free energy: 2.3 kcal/mol and 1.4 kcal/mol
[7]
  denaturant m value: 3.2 kcal/mol/M
  denaturant midpoint (higher = more stable): 2.3 M
  unfolding free energy: 7.6 kcal/mol
[8]
  denaturant m value: 3 kcal/mol/M and 3.4 kcal/mol/M
  denaturant midpoint (higher = more stable): 2 M
  unfolding free energy: 5.9 kcal/mol and 6.9 kcal/mol
[9]
  denaturant m value: 1.1 kcal/mol/M
  denaturant midpoint (higher = more stable): 3.5 M
  unfolding free energy: 4 kcal/mol
[10]
  denaturant m value: 1.5 kcal/mol/M and 1.4 kcal/mol/M
  denaturant midpoint (higher = more stable): 4.4 M and 3.6 M
  unfolding free energy: 6.4 kcal/mol and 5 kcal/mol
